According to patent US20090042809A1 (published 2009):

What was measured:
[1] = molecular target: T1, angiotensin converting enzyme (ACE), obtained from Sigma Chemicals; assay: cell-based or functional assay
[2] = molecular target: T1, angiotensin converting enzyme (ACE), …; assay: cell-based or functional assay; remark: listed apart in the source

Row | Binder | IC50 value in the Modified Matsui test [1] [µM] | IC50 value in µM, Modified Matsui assay (cleavage of Hip-His-Leu by ACE) [2] [µM] | IC50 value in µM, at-line ACE assay (cleavage of HHL by ACE) [2] [µM]
1 | MAP [tripeptide MAP (Met-Ala-Pro), chemically synthesised] | 0.5 | 0.4 | 3.8
2 | IPP [tripeptide IPP (Ile-Pro-Pro), chemically synthesised] |  | 2 | 7.1
3 | ITP [tripeptide ITP (Ile-Thr-Pro), chemically synthesised] |  | 10 | 50
